Measured values: patent US20240124607A1 (Merck Sharp & Dohme, published 2024)

Key:
human CEACAM5 on cells = biological target: T1, human CEACAM5 on cells (human, UniProt P06731 35-685); assay: flow cytometry, BxPC-3 cells
T1 construct: tumour cell lines with endogenous CEACAM5, or B16F10 engineered to express hCEACAM5; also called CEACAM5 on MKN-45, HPAF-II, SK-CO-1, LoVo, BxPC-3, Kato-III, LS-174T, ZR-75-30; hCEACAM5-B16F10
T1 sequence: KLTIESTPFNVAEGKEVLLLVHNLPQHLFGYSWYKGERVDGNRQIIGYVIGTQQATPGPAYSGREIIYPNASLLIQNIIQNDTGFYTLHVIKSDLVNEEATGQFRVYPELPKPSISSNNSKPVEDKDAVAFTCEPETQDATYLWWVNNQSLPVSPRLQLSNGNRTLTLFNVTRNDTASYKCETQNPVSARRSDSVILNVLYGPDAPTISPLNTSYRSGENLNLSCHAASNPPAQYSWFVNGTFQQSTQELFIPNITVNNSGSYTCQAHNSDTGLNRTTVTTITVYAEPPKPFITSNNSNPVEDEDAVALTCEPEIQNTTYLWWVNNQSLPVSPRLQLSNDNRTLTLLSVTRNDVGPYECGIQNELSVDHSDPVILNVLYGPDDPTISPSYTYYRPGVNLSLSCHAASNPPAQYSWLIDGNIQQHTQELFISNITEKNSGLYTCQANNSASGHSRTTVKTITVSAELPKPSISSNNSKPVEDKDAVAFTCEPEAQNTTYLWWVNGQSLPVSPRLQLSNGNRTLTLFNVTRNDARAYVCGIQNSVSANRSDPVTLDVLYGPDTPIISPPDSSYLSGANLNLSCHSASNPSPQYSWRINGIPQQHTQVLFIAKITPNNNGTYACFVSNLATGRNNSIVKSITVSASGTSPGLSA

[1] = biological target: T2, human CEACAM6 on Ba/F3 cells (human, UniProt P40199 35-320); assay: flow cytometry on Ba/F3 cells expressing human CEACAM6, fold over background (FOB), 5-fold dilutions from 1600 nM
T2 construct: whole, on cells
T2 sequence (looked up): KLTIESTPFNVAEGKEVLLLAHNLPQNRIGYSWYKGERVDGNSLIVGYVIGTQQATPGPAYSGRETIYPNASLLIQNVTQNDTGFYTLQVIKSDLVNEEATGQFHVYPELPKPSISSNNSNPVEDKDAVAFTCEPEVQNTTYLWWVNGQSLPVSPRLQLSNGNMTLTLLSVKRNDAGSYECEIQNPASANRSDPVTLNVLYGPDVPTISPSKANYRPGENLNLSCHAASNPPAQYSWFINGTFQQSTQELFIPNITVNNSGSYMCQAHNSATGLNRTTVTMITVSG
Method: To examine the binding specificity of the TriNKETs to CEACAM5 compared to other CEACAM family members, Ba/F3 cells were engineered to express one of human CEACAM1, CEACAM6, CEACAM8, or cynomolgus CEACAM5. CEACAM5 TriNKETs were evaluated by flow cytometry starting at 1600 nM followed by 7 5-fold dilutions.

Human CEACAM6 = biological target: T3, Human CEACAM6 (human, UniProt P40199 35-320, limits assumed); assay: SPR, 37C, pH 7.4
T3 sequence (looked up): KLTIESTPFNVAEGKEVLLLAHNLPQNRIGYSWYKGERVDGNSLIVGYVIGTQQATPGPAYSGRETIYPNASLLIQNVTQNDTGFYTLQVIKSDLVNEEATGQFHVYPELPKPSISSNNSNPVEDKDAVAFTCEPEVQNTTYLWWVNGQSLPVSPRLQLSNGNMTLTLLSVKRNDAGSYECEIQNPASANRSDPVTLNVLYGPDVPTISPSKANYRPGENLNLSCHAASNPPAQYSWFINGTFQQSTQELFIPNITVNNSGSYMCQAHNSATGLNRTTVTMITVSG
Method: To determine the affinity and cross-reactivity of CEACAM5 TriNKET molecules, AB0411, AB0466, or AB0621 TriNKETs were captured using an anti-human Fc capture antibody (Cytiva, #BR100839) immobilized onto a Biacore CM5 standard surface sensor chip following manufacturer instructions. Human or cynomolgus CEACAM5 were titrated over captured AB0411, AB0466, and AB0621 as 2-fold serial dilutions starting from 300 nM. Association was monitored for 300 sec and dissociation was monitored for 600 sec. The assay was run at 37° C. at pH 7.4 and 6.0. The surface of the CM5 chip was regenerated with 10 mM glycine pH 1.5 for 20 sec at 100 μL/min.
Binding to human and cynomolgus CEACAM1, 6, and 8 was assessed by SPR using the same protocol as for CEACAM5 but using up to 600 and 1200 nM for titration of each protein. There were no detectable binding signals at these concentrations for AB0621. In contrast, reproducible weak binding signals were detected for AB0411 and AB0466, but these two TriNKETs also bound to different epitope(s) on the N-terminus of CEACAM5. Typical weak binding sensorgrams for AB0411 and AB0466 against human CEACAM1 and 6 indicated weak but notable signals compared to AB0621. […]

EC50 (human CEACAM5 on cells): 30.5 nM
Max FOB (human CEACAM5 on cells): 12 fold over background
binding result [1]: no binding (tested: 1600 nM)
B1: AB0264 F3' CEACAM5 TriNKET (bispecific antibody, human IgG1, kappa)
chain: DIVMTQSPDSLAVSLGERATINCKSSHSLLYGNFQNNYLAWYQQKPGQPPKLLIYWASTRESGVPDRFSGSGSGTDFTLTISSLQAEDVAVYYCQQYYSYPYTFGCGTKLEIKGGGGSGGGGSGGGGSGGGGSQVQLVQSGAEVKKPGASVKVSCKASGYTFTAYTIHWVRQAPGQCLEWMGYINPSSGYTEYNQKFKDRTTLTADTSIPTAYMELSRLRSDDTAVYYCTREGGLLWFDYWGQGTLVTVSSGSDKTHTCPPCPAPELLGGPSVFLFPPKPKDTLMISRTPEVTCVVVDVSHEDPEVKFNWYVDGVEVHNAKTKPREEQYNSTYRVVSVLTVLHQDWLNGKEYKCKVSNKALPAPIEKTISKAKGQPREPRVYTLPPCRDELTKNQVSLTCLVKGFYPSDIAVEWESNGQPENNYKTTPPVLVSDGSFTLYSKLTVDKSRWQQGNVFSCSVMHEALHNHYTQKSLSLSPG
heavy: EVQLVESGGGLVKPGGSLRLSCAASGFTFSSYSMNWVRQAPGKGLEWVSSISSSSSYIYYADSVKGRFTISRDNAKNSLYLQMNSLRAEDTAVYYCARGAPIGAAAGWFDPWGQGTLVTVSSASTKGPSVFPLAPSSKSTSGGTAALGCLVKDYFPEPVTVSWNSGALTSGVHTFPAVLQSSGLYSLSSVVTVPSSSLGTQTYICNVNHKPSNTKVDKKVEPKSCDKTHTCPPCPAPELLGGPSVFLFPPKPKDTLMISRTPEVTCVVVDVSHEDPEVKFNWYVDGVEVHNAKTKPREEQYNSTYRVVSVLTVLHQDWLNGKEYKCKVSNKALPAPIEKTISKAKGQPREPQVCTLPPSRDELTENQVSLTCLVKGFYPSDIAVEWESNGQPENNYKTTPPVLDSDGSFFLYSWLTVDKSRWQQGNVFSCSVMHEALHNHYTQKSLSLSPG
light: DIQMTQSPSSVSASVGDRVTITCRASQGISSWLAWYQQKPGKAPKLLIYAASSLQSGVPSRFSGSGSGTDFTLTISSLQPEDFATYYCQQGVSFPRTFGGGTKVEIKRTVAAPSVFIFPPSDEQLKSGTASVVCLLNNFYPREAKVQWKVDNALQSGNSQESVTEQDSKDSTYSLSSTLTLSKADYEKHKVYACEVTHQGLSSPVTKSFNRGEC
binding result (Human CEACAM6): no binding (tested: up to 600 and 1200 nM)
